Earlier results in article PMC10950897, “VCF1 is a p97/VCP cofactor promoting recognition of ubiquitylated p97-UFD1-NPL4 substrates” (Nature Communications, 2024).

Biological target: p97 (Homo sapiens) (UniProt P55072)
Sequence (P55072 2-806): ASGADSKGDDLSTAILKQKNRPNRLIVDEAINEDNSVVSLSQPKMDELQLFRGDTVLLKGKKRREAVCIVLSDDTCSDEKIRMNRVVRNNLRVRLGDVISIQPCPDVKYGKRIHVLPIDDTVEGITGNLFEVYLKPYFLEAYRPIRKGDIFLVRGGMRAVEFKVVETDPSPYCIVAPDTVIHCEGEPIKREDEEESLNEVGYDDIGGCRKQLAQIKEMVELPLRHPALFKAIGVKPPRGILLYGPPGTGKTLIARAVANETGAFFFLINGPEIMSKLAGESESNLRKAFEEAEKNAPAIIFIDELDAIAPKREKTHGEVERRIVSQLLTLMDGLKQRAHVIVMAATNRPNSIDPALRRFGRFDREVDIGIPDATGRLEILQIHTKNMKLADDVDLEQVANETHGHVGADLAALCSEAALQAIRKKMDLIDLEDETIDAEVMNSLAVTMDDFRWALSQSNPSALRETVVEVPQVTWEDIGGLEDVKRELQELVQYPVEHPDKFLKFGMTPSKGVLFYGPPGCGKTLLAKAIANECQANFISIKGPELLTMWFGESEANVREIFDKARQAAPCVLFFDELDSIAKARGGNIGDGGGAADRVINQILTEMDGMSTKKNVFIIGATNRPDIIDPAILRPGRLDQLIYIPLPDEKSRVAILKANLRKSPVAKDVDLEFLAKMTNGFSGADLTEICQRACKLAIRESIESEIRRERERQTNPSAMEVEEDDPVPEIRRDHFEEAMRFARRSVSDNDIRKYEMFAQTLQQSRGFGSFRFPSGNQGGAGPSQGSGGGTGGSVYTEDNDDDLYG

p47, sequence (Q9UNZ2 whole entry): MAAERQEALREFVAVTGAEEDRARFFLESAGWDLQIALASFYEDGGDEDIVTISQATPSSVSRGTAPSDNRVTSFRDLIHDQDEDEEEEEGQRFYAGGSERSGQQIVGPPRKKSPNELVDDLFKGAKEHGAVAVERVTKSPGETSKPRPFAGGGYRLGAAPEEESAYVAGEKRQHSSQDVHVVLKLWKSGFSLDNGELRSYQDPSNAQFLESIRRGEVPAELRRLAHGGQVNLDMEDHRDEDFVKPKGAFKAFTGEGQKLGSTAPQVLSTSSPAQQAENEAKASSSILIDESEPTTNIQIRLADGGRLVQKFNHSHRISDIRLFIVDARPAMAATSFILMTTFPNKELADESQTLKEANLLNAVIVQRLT

Kd: 350 nM
Substance: p47 (from UniProt Q9UNZ2)
